Each block holds one binder with its values, some of them ahead of it.
Target: Protease Mixtures
Assay: cell-based or functional assay

B1: Variant A2M, bait region SEQ ID NO 142, P01023 24-1474 (protein)
chain: SVSGKPQYMVLVPSLLHTETTEKGCVLLSYLNETVTVSASLESVRGNRSLFTDLEAENDVLHCVAFAVPKSSSNEEVMFLTVQVKGPTQEFKKRTTVMVKNEDSLVFVQTDKSIYKPGQTVKFRVVSMDENFHPLNELIPLVYIQDPKGNRIAQWQSFQLEGGLKQFSFPLSSEPFQGSYKVVVQKKSGGRTEHPFTVEEFVLPKFEVQVTVPKIITILEEEMNVSVCGLYTYGKPVPGHVTVSICRKYSDASDCHGEDSQAFCEKFSGQLNSHGCFYQQVKTKVFQLKRKEYEMKLHTEAQIQEEGTVVELTGRQSSEITRTITKLSFVKVDSHFRQGIPFFGQVRLVDGKGVPIPNKVIFIRGNEANYYSNATTDEHGLVQFSINTTNVMGTSLTVRVNYKDRSPCYGYQWVSEEHEEAHHTAYLVFSPSKSFVHLEPMSHELPCGHTQTVQAHYILNGGTLLGLKKLSFYYLIMAKGGIVRTGTHGLLVKQEDMKGHFSISIPVKSDIAPVARLLIYAVLPTGDVIGDSAKYDVENCLANKVDLSFSPSQSLPASHAHLRVTAAPQSVCALRAVDQSVLLMKPDAELSASSVYNLLPEKDLTGFPGPLNDQDDEDCINRHNVYINGITYTPVSSTNEKDMYSFLEDMGLKAFTNSKIRKPKMCPQLEQYEMHGPSELEGRGSIPENFFGVEGEGEGEGKEEEGLGSVEEPHTKLRKYFPETWIWDLVVVNSAGVAEVGVTVPDTITEWKAGAFCLSEDAGLGISSTASLRAFQPFFVELTMPYSVIRGEAFTLKATVLNYLPKCIRVSVQLEASPAFLAVPVEKEQAPHCICANGRQTVSWAVTPKSLGNVNFTVSAEALESQELCGTEVPSVPEHGRKDTVIKPLLVEPEGLEKETTFNSLLCPSGGEVSEELSLKLPPNVVEESARASVSVLGDILGSAMQNTQNLLQMPYGCGEQNMVLFAPNIYVLDYLNETQQLTPEIKSKAIGYLNTGYQRQLNYKHYDGSYSTFGERYGRNQGNTWLTAFVLKTFAQARAYIFIDEAHITQALIWLSQRQKDNGCFRSSGSLLNNAIKGGVEDEVTLSAYITIALLEIPLTVTHPVVRNALFCLESAWKTAQEGDHGSHVYTKALLAYAFALAGNQDKRKEVLKSLNEEAVKKDNSVHWERPQKPKAPVGHFYEPQAPSAEVEMTSYVLLAYLTAQPAPTSEDLTSATNIVKWITKQQNAQGGFSSTQDTVVALHALSKYGAATFTRTGKAAQVTIQSSGTFSSKFQVDNNNRLLLQQVSLPELPGEYSMKVTGEGCVYLQTSLKYNILPEKEEFPFALGVQTLPQTCDEPKAHTSFQISLSVSYTGSRSASNMAIVDVKMVSGFIPLKPTVKMLERSNHVSRTEVSSNHVLIYLDKVSNQTLSLFFTVLQDVPVRDLKPAIVKVYDYYETDEFAIAEYNAPCSKDLGNADYKDDDDKGASHHHHHH
- Protease Inhibition (% of WT); Protease Mixtures, IGD Substrate: 140 % of WT

B2: Variant A2M, bait region SEQ ID NO 139, P01023 24-1474 (protein)
chain: SVSGKPQYMVLVPSLLHTETTEKGCVLLSYLNETVTVSASLESVRGNRSLFTDLEAENDVLHCVAFAVPKSSSNEEVMFLTVQVKGPTQEFKKRTTVMVKNEDSLVFVQTDKSIYKPGQTVKFRVVSMDENFHPLNELIPLVYIQDPKGNRIAQWQSFQLEGGLKQFSFPLSSEPFQGSYKVVVQKKSGGRTEHPFTVEEFVLPKFEVQVTVPKIITILEEEMNVSVCGLYTYGKPVPGHVTVSICRKYSDASDCHGEDSQAFCEKFSGQLNSHGCFYQQVKTKVFQLKRKEYEMKLHTEAQIQEEGTVVELTGRQSSEITRTITKLSFVKVDSHFRQGIPFFGQVRLVDGKGVPIPNKVIFIRGNEANYYSNATTDEHGLVQFSINTTNVMGTSLTVRVNYKDRSPCYGYQWVSEEHEEAHHTAYLVFSPSKSFVHLEPMSHELPCGHTQTVQAHYILNGGTLLGLKKLSFYYLIMAKGGIVRTGTHGLLVKQEDMKGHFSISIPVKSDIAPVARLLIYAVLPTGDVIGDSAKYDVENCLANKVDLSFSPSQSLPASHAHLRVTAAPQSVCALRAVDQSVLLMKPDAELSASSVYNLLPEKDLTGFPGPLNDQDDEDCINRHNVYINGITYTPVSSTNEKDMYSFLEDMGLKAFTNSKIRKPKMCPQLEQYEMHGPSEDLVVQIEGEGEGEGIPENFFGVEAIPMSIPTEPHTKLRKYFPETWIWDLVVVNSAGVAEVGVTVPDTITEWKAGAFCLSEDAGLGISSTASLRAFQPFFVELTMPYSVIRGEAFTLKATVLNYLPKCIRVSVQLEASPAFLAVPVEKEQAPHCICANGRQTVSWAVTPKSLGNVNFTVSAEALESQELCGTEVPSVPEHGRKDTVIKPLLVEPEGLEKETTFNSLLCPSGGEVSEELSLKLPPNVVEESARASVSVLGDILGSAMQNTQNLLQMPYGCGEQNMVLFAPNIYVLDYLNETQQLTPEIKSKAIGYLNTGYQRQLNYKHYDGSYSTFGERYGRNQGNTWLTAFVLKTFAQARAYIFIDEAHITQALIWLSQRQKDNGCFRSSGSLLNNAIKGGVEDEVTLSAYITIALLEIPLTVTHPVVRNALFCLESAWKTAQEGDHGSHVYTKALLAYAFALAGNQDKRKEVLKSLNEEAVKKDNSVHWERPQKPKAPVGHFYEPQAPSAEVEMTSYVLLAYLTAQPAPTSEDLTSATNIVKWITKQQNAQGGFSSTQDTVVALHALSKYGAATFTRTGKAAQVTIQSSGTFSSKFQVDNNNRLLLQQVSLPELPGEYSMKVTGEGCVYLQTSLKYNILPEKEEFPFALGVQTLPQTCDEPKAHTSFQISLSVSYTGSRSASNMAIVDVKMVSGFIPLKPTVKMLERSNHVSRTEVSSNHVLIYLDKVSNQTLSLFFTVLQDVPVRDLKPAIVKVYDYYETDEFAIAEYNAPCSKDLGNADYKDDDDKGASHHHHHH
- Protease Inhibition (% of WT); Protease Mixtures, IGD Substrate: 190 % of WT

The next lines start with the values.

- Protease Inhibition (% of WT); Protease Mixtures, IGD Substrate: 210 % of WT
B3: Variant A2M, bait region SEQ ID NO 138, P01023 24-1474 (protein)
chain: SVSGKPQYMVLVPSLLHTETTEKGCVLLSYLNETVTVSASLESVRGNRSLFTDLEAENDVLHCVAFAVPKSSSNEEVMFLTVQVKGPTQEFKKRTTVMVKNEDSLVFVQTDKSIYKPGQTVKFRVVSMDENFHPLNELIPLVYIQDPKGNRIAQWQSFQLEGGLKQFSFPLSSEPFQGSYKVVVQKKSGGRTEHPFTVEEFVLPKFEVQVTVPKIITILEEEMNVSVCGLYTYGKPVPGHVTVSICRKYSDASDCHGEDSQAFCEKFSGQLNSHGCFYQQVKTKVFQLKRKEYEMKLHTEAQIQEEGTVVELTGRQSSEITRTITKLSFVKVDSHFRQGIPFFGQVRLVDGKGVPIPNKVIFIRGNEANYYSNATTDEHGLVQFSINTTNVMGTSLTVRVNYKDRSPCYGYQWVSEEHEEAHHTAYLVFSPSKSFVHLEPMSHELPCGHTQTVQAHYILNGGTLLGLKKLSFYYLIMAKGGIVRTGTHGLLVKQEDMKGHFSISIPVKSDIAPVARLLIYAVLPTGDVIGDSAKYDVENCLANKVDLSFSPSQSLPASHAHLRVTAAPQSVCALRAVDQSVLLMKPDAELSASSVYNLLPEKDLTGFPGPLNDQDDEDCINRHNVYINGITYTPVSSTNEKDMYSFLEDMGLKAFTNSKIRKPKMCPQLEQYEMHGPSEDLVVQIEGEGEGEGIPENFFGVKEEEGLGSVEEPHTKLRKYFPETWIWDLVVVNSAGVAEVGVTVPDTITEWKAGAFCLSEDAGLGISSTASLRAFQPFFVELTMPYSVIRGEAFTLKATVLNYLPKCIRVSVQLEASPAFLAVPVEKEQAPHCICANGRQTVSWAVTPKSLGNVNFTVSAEALESQELCGTEVPSVPEHGRKDTVIKPLLVEPEGLEKETTFNSLLCPSGGEVSEELSLKLPPNVVEESARASVSVLGDILGSAMQNTQNLLQMPYGCGEQNMVLFAPNIYVLDYLNETQQLTPEIKSKAIGYLNTGYQRQLNYKHYDGSYSTFGERYGRNQGNTWLTAFVLKTFAQARAYIFIDEAHITQALIWLSQRQKDNGCFRSSGSLLNNAIKGGVEDEVTLSAYITIALLEIPLTVTHPVVRNALFCLESAWKTAQEGDHGSHVYTKALLAYAFALAGNQDKRKEVLKSLNEEAVKKDNSVHWERPQKPKAPVGHFYEPQAPSAEVEMTSYVLLAYLTAQPAPTSEDLTSATNIVKWITKQQNAQGGFSSTQDTVVALHALSKYGAATFTRTGKAAQVTIQSSGTFSSKFQVDNNNRLLLQQVSLPELPGEYSMKVTGEGCVYLQTSLKYNILPEKEEFPFALGVQTLPQTCDEPKAHTSFQISLSVSYTGSRSASNMAIVDVKMVSGFIPLKPTVKMLERSNHVSRTEVSSNHVLIYLDKVSNQTLSLFFTVLQDVPVRDLKPAIVKVYDYYETDEFAIAEYNAPCSKDLGNADYKDDDDKGASHHHHHH

- Protease Inhibition (% of WT); Protease Mixtures, IGD Substrate: 110 % of WT
B4: Variant A2M, bait region SEQ ID NO 143, P01023 24-1474 (protein)
chain: SVSGKPQYMVLVPSLLHTETTEKGCVLLSYLNETVTVSASLESVRGNRSLFTDLEAENDVLHCVAFAVPKSSSNEEVMFLTVQVKGPTQEFKKRTTVMVKNEDSLVFVQTDKSIYKPGQTVKFRVVSMDENFHPLNELIPLVYIQDPKGNRIAQWQSFQLEGGLKQFSFPLSSEPFQGSYKVVVQKKSGGRTEHPFTVEEFVLPKFEVQVTVPKIITILEEEMNVSVCGLYTYGKPVPGHVTVSICRKYSDASDCHGEDSQAFCEKFSGQLNSHGCFYQQVKTKVFQLKRKEYEMKLHTEAQIQEEGTVVELTGRQSSEITRTITKLSFVKVDSHFRQGIPFFGQVRLVDGKGVPIPNKVIFIRGNEANYYSNATTDEHGLVQFSINTTNVMGTSLTVRVNYKDRSPCYGYQWVSEEHEEAHHTAYLVFSPSKSFVHLEPMSHELPCGHTQTVQAHYILNGGTLLGLKKLSFYYLIMAKGGIVRTGTHGLLVKQEDMKGHFSISIPVKSDIAPVARLLIYAVLPTGDVIGDSAKYDVENCLANKVDLSFSPSQSLPASHAHLRVTAAPQSVCALRAVDQSVLLMKPDAELSASSVYNLLPEKDLTGFPGPLNDQDDEDCINRHNVYINGITYTPVSSTNEKDMYSFLEDMGLKAFTNSKIRKPKMCPQLEQYEMHGPIPENFFGVSEDLVVQIEGEGEGEGEAIPMSIPTEPHTKLRKYFPETWIWDLVVVNSAGVAEVGVTVPDTITEWKAGAFCLSEDAGLGISSTASLRAFQPFFVELTMPYSVIRGEAFTLKATVLNYLPKCIRVSVQLEASPAFLAVPVEKEQAPHCICANGRQTVSWAVTPKSLGNVNFTVSAEALESQELCGTEVPSVPEHGRKDTVIKPLLVEPEGLEKETTFNSLLCPSGGEVSEELSLKLPPNVVEESARASVSVLGDILGSAMQNTQNLLQMPYGCGEQNMVLFAPNIYVLDYLNETQQLTPEIKSKAIGYLNTGYQRQLNYKHYDGSYSTFGERYGRNQGNTWLTAFVLKTFAQARAYIFIDEAHITQALIWLSQRQKDNGCFRSSGSLLNNAIKGGVEDEVTLSAYITIALLEIPLTVTHPVVRNALFCLESAWKTAQEGDHGSHVYTKALLAYAFALAGNQDKRKEVLKSLNEEAVKKDNSVHWERPQKPKAPVGHFYEPQAPSAEVEMTSYVLLAYLTAQPAPTSEDLTSATNIVKWITKQQNAQGGFSSTQDTVVALHALSKYGAATFTRTGKAAQVTIQSSGTFSSKFQVDNNNRLLLQQVSLPELPGEYSMKVTGEGCVYLQTSLKYNILPEKEEFPFALGVQTLPQTCDEPKAHTSFQISLSVSYTGSRSASNMAIVDVKMVSGFIPLKPTVKMLERSNHVSRTEVSSNHVLIYLDKVSNQTLSLFFTVLQDVPVRDLKPAIVKVYDYYETDEFAIAEYNAPCSKDLGNADYKDDDDKGASHHHHHH

Reference: patent US20230250154A1
